Values of other authors, collected in publication PMC8179794.
Where two headings read alike, the source gives them in different places.

Columns and labels:
IL-15Rα (Homo sapiens) = IL-15Rα (Homo sapiens) (UniProt Q13261)
IL-2Rβ (Homo sapiens) [1] = target: IL-2Rβ (Homo sapiens) (UniProt P14784)
IL-21R (Homo sapiens) = IL-21R (Homo sapiens) (UniProt Q9HBE5)
IL-2Rβ (Homo sapiens) [2] = target: IL-2Rβ (Homo sapiens) (UniProt P14784); remark: listed apart in the source
IL-2Rα (Homo sapiens) = IL-2Rα (Homo sapiens) (UniProt P01589)
UniProt P01589, sequence (P01589 22-240): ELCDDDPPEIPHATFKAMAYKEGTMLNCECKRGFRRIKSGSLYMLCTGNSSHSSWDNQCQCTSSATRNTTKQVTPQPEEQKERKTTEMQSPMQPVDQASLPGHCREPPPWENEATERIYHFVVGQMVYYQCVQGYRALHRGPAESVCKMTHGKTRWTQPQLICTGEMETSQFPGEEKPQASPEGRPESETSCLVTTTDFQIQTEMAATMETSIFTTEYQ

IL-9R (Homo sapiens) = IL-9R (Homo sapiens) (UniProt Q01113)
UniProt Q01113, sequence (Q01113 41-270): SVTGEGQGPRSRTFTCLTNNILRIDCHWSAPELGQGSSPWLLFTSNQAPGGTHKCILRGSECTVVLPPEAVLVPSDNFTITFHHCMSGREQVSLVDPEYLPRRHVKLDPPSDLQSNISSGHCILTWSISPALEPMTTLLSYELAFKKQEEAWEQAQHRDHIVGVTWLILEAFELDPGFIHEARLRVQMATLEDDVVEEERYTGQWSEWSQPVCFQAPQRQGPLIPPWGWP

UniProt P14784, sequence (P14784 27-240): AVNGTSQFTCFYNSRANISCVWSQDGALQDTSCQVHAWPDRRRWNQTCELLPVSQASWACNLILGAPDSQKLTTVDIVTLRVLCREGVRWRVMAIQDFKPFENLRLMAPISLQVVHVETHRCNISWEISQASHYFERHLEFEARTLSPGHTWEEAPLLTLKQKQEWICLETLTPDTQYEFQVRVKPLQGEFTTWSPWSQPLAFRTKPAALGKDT
UniProt Q9HBE5, sequence (Q9HBE5 20-232): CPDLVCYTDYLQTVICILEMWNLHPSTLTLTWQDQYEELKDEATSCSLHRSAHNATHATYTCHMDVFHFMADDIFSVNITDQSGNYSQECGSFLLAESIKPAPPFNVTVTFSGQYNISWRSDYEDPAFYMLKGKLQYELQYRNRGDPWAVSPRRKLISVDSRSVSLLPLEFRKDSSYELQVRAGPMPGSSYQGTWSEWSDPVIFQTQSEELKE
UniProt Q13261, sequence (Q13261 31-205): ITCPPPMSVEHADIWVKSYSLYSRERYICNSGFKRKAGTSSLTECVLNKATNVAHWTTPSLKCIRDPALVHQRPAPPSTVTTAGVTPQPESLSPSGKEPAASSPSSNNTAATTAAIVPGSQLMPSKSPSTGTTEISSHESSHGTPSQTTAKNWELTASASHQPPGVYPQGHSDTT

IL-15 (from UniProt P40933)
Kd (IL-15Rα (Homo sapiens)): 0.065 nM
Kd (IL-2Rβ (Homo sapiens) [1]): 438 nM

IL-21 (from UniProt Q9HBE4)
Kd (IL-21R (Homo sapiens)): 0.07 nM

IL-2 (from UniProt P60568)
Kd (IL-2Rβ (Homo sapiens) [2]): 144 nM
Kd (IL-2Rα (Homo sapiens)): 10 nM

IL-9 (from UniProt P15248)
Kd (IL-9R (Homo sapiens)): 0.1 nM
